Results reported in US20040005324A1 (INTRACEL RESOURCES, published 2004).

Key:
[1] = molecular target: RSV F glycoprotein of subgroup A isolate Bir/6190/′89 (respiratory syncytial virus, subgroup A); assay: cell-based or functional assay
[2] = molecular target: RSV F glycoprotein of subgroup B isolate Wash/18537/′62 (respiratory syncytial virus, subgroup B, UniProt P13843 26-574); assay: cell-based or functional assay
[3] = molecular target: RSV F glycoprotein of subgroup A isolate OK/9970/′85 (respiratory syncytial virus, subgroup A); assay: cell-based or functional assay
[4] = molecular target: RSV F glycoprotein of subgroup A isolate Bir/1734/′89 (respiratory syncytial virus, subgroup A); assay: cell-based or functional assay
[5] = molecular target: RSV F glycoprotein of subgroup A isolate Wash/11657/′60 (respiratory syncytial virus, subgroup A); assay: cell-based or functional assay
[6] = molecular target: RSV F glycoprotein of subgroup A isolate SL/10865/′84 (respiratory syncytial virus, subgroup A); assay: cell-based or functional assay
[7] = molecular target: RSV F glycoprotein of subgroup B isolate WV/474R/′90 (respiratory syncytial virus, subgroup B); assay: cell-based or functional assay
[8] = molecular target: RSV F glycoprotein of subgroup B isolate WV/17154/′85 (respiratory syncytial virus, subgroup B); assay: cell-based or functional assay
[9] = molecular target: RSV F glycoprotein of subgroup B isolate WV/285R/′90 (respiratory syncytial virus, subgroup B); assay: cell-based or functional assay
[10] = molecular target: RSV F glycoprotein of subgroup A isolate New/RSS-2/′76 (respiratory syncytial virus, subgroup A, UniProt P11209 26-574); assay: cell-based or functional assay
[11] = molecular target: RSV F glycoprotein of subgroup B isolate WV/1293/′75 (respiratory syncytial virus, subgroup B); assay: cell-based or functional assay
[12] = molecular target: RSV F glycoprotein of subgroup A isolate SL/863/′84 (respiratory syncytial virus, subgroup A); assay: cell-based or functional assay
[13] = molecular target: RSV F glycoprotein of subgroup B isolate WV/401R/′90 (respiratory syncytial virus, subgroup B); assay: cell-based or functional assay
[14] = molecular target: RSV F glycoprotein of subgroup B isolate WV/14617/′85 (respiratory syncytial virus, subgroup B); assay: cell-based or functional assay
[15] = molecular target: RSV F glycoprotein of subgroup B isolate WV/2B/′87 (respiratory syncytial virus, subgroup B); assay: cell-based or functional assay
[16] = molecular target: RSV F glycoprotein of subgroup B isolate WV/20323/′87 (respiratory syncytial virus, subgroup B); assay: cell-based or functional assay
[17] = molecular target: RSV F glycoprotein of subgroup B isolate WV/4843/′80 (respiratory syncytial virus, subgroup B); assay: cell-based or functional assay
[18] = molecular target: RSV F glycoprotein of subgroup A isolate SL/10849/′84 (respiratory syncytial virus, subgroup A); assay: cell-based or functional assay
[19] = molecular target: RSV F glycoprotein of subgroup A isolate SW/669/′59 (respiratory syncytial virus, subgroup A); assay: cell-based or functional assay
[20] = molecular target: RSV F glycoprotein of subgroup A isolate Wash/Bern/′65 (respiratory syncytial virus, subgroup A); assay: cell-based or functional assay
BSA = BSA (UniProt P02769 25-607); assay: ELISA with purified Fab
Chain of BSA (P02769 25-607 limits assumed): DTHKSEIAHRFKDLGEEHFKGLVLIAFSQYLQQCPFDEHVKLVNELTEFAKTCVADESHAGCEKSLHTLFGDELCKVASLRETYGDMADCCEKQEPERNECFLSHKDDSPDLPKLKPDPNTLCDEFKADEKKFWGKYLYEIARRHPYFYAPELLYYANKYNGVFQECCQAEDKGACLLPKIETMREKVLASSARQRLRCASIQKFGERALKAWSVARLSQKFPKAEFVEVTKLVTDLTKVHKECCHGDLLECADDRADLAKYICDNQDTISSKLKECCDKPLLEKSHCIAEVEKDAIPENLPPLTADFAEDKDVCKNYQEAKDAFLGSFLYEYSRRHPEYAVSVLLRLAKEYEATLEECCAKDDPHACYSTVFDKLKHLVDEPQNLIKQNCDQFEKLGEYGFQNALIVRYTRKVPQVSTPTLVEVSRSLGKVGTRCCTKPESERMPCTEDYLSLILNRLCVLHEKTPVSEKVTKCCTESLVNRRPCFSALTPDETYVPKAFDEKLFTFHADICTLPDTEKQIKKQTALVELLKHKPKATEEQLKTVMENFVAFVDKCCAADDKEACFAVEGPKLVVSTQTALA

[21] = molecular target: RSV F glycoprotein of wild type RSV strain A2 (respiratory syncytial virus strain A2, UniProt P03420 26-574); assay: cell-based or functional assay
[22] = molecular target: RSV F glycoprotein of MARM v1153 (strain A2 escape mutant, substitution at aa 262) (respiratory syncytial virus strain A2, UniProt P03420 26-574); assay: cell-based or functional assay
[23] = molecular target: RSV F glycoprotein of MARM v1129 (strain A2 escape mutant, substitution at aa 275) (respiratory syncytial virus strain A2, UniProt P03420 26-574); assay: cell-based or functional assay
[24] = molecular target: RSV F glycoprotein of MARM v1237 (strain A2 escape mutant, substitution at aa 276) (respiratory syncytial virus strain A2, UniProt P03420 26-574); assay: cell-based or functional assay
[25] = molecular target: RSV F glycoprotein of MARM vN151 (strain A2 escape mutant, substitution at aa 272) (respiratory syncytial virus strain A2, UniProt P03420 26-574); assay: cell-based or functional assay
[26] = molecular target: RSV F glycoprotein of MARM v1214 (strain A2 escape mutant, substitution at aa 276) (respiratory syncytial virus strain A2, UniProt P03420 26-574); assay: cell-based or functional assay
[27] = molecular target: RSV F glycoprotein of MARM v1200 (strain A2 escape mutant, substitution at aa 272) (respiratory syncytial virus strain A2, UniProt P03420 26-574); assay: cell-based or functional assay
[28] = molecular target: RSV F glycoprotein of MARM v324 (strain A2 escape mutant, arginine to serine at residue 429 of the F1 subunit) (respiratory syncytial virus strain A2, UniProt P03420 26-574, limits assumed); assay: cell-based or functional assay

B1: human monoclonal Fab RSVF2-5 (Fab, V domains shown)
VH: LEESGGDLVQPGRSLRLSCSTSGFSFGDYPVNWFRQAPGKGLEWLGIVRSRLYGGTLQYAASVEGRFTISRDDSKSIAYLHMNSLKSEDTAVYYCGVPVANIDYWGQGTLVTVSS
VL: LTQPHSVSESLGKTVTISCTRAGGRIASNYVQWYQQRPGSSPTTVIYEDNQRPFGVPDRFSGSIDTSSNSASLTISGLKTEDEADYYCQSYDSENPWVFGGGTKLTVLG
notes: CH1 and CL are therefore probably not in these entries; also called RSV Fab F2-5
[1]
  Specific neutralization activity (µg/ml): purified Fab for 60% plaque reduction, Vero cells: 2.4 µg/mL
[2]
  Specific neutralization activity (µg/ml): purified Fab for 60% plaque reduction, Vero cells: 0.5 µg/mL
[3]
  Specific neutralization activity (µg/ml): purified Fab for 60% plaque reduction, Vero cells: 1.4 µg/mL
[4]
  Specific neutralization activity (µg/ml): purified Fab for 60% plaque reduction, Vero cells: 1.1 µg/mL
[5]
  Specific neutralization activity (µg/ml): purified Fab for 60% plaque reduction, Vero cells: 1.6 µg/mL
[6]
  Specific neutralization activity (µg/ml): purified Fab for 60% plaque reduction, Vero cells: 0.4 µg/mL
[7]
  Specific neutralization activity (µg/ml): purified Fab for 60% plaque reduction, Vero cells: 0.9 µg/mL
[8]
  Specific neutralization activity (µg/ml): purified Fab for 60% plaque reduction, Vero cells: 2.1 µg/mL
[9]
  Specific neutralization activity (µg/ml): purified Fab for 60% plaque reduction, Vero cells: 0.6 µg/mL
[10]
  Specific neutralization activity (µg/ml): purified Fab for 60% plaque reduction, Vero cells: 1.9 µg/mL
[11]
  Specific neutralization activity (µg/ml): purified Fab for 60% plaque reduction, Vero cells: 1 µg/mL
[12]
  Specific neutralization activity (µg/ml): purified Fab for 60% plaque reduction, Vero cells: 0.2 µg/mL
[13]
  Specific neutralization activity (µg/ml): purified Fab for 60% plaque reduction, Vero cells: 0.7 µg/mL
[14]
  Specific neutralization activity (µg/ml): purified Fab for 60% plaque reduction, Vero cells: 2.6 µg/mL
[15]
  Specific neutralization activity (µg/ml): purified Fab for 60% plaque reduction, Vero cells: 0.3 µg/mL
[16]
  Specific neutralization activity (µg/ml): purified Fab for 60% plaque reduction, Vero cells: 0.8 µg/mL
[17]
  Specific neutralization activity (µg/ml): purified Fab for 60% plaque reduction, Vero cells: 0.5 µg/mL
[18]
  Specific neutralization activity (µg/ml): purified Fab for 60% plaque reduction, Vero cells: 0.9 µg/mL
[19]
  Specific neutralization activity (µg/ml): purified Fab for 60% plaque reduction, Vero cells: 3 µg/mL
[20]
  Specific neutralization activity (µg/ml): purified Fab for 60% plaque reduction, Vero cells: 0.6 µg/mL
BSA
  binding result: no binding
[21]
  Dose for 60% plaque reduction: 0.1 µg/mL
[22]
  Dose for 60% plaque reduction: 0.9 µg/mL
[23]
  Dose for 60% plaque reduction: 0.5 µg/mL
[24]
  Dose for 60% plaque reduction: < 0.3 µg/mL
[25]
  Dose for 60% plaque reduction: 0.4 µg/mL
[26]
  Dose for 60% plaque reduction: 0.1 µg/mL
[27]
  Dose for 60% plaque reduction: 0.3 µg/mL
[28]
  Dose for 60% plaque reduction: > 18 µg/mL
